Laboratory results: patent publication US20210388097A1 (SORRENTO THERAPEUTICS, published 2021)

Legend:
[1] = target: T1, his-tagged cynomolgus BCMA protein (ACROBiosystems, catalog # BCA-052H7) (cynomolgus, UniProt A0A2K5UD97 1-53); assay: SPR (Biacore T200), antibody captured on anti-human Fc chip, his-tagged cynomolgus BCMA as analyte
T1 construct: Bought protein; also called cyno BCMA; not shown: his tag
Method: (§1) Binding kinetics of anti-BCMA antibodies with his-tagged human BCMA protein (ACROBiosystems, catalog # BCA-H522y-100 ug, UniProt Q02223-1, SEQ ID NO:92) was measured using surface plasmon resonance (SPR). Kinetic interactions between the antibodies and his-tagged BCMA proteins were measured at 25° C. using Biacore T200 surface plasmon resonance (GE Healthcare). Anti-human fragment crystallizable region (Fc region) antibody was immobilized on a CM5 sensor chip to approximately 8000 resonance units (RU) using standard N-hydroxysuccinimide/N-Ethyl-N′-(3-dimethylaminopropyl) carbodiimide hydrochloride (NHS/EDC) coupling methodology. The anti-BCMA antibody (2 μg/mL) was captured for 60 seconds at a flow rate of 10 μL/minute. The his-tagged BCMA protein was run at […] different dilutions of 3.12, 6.25, 12.5, 25, 50, 100 and 200 nM, in a running buffer of 0.01 M HEPES pH 7.4, 0.15 M NaCl, 3 mM EDTA, 0.05% v/v Surfactant P20 (HBS-EP+). The 25 nM BCMA protein run was measured two times. All measurements were conducted in HBS-EP+ buffer with a flow rate of 30 μL/minute. A 1:1 (Langmuir) binding model was used to fit the data. […]
(§2) Cross reactivity of two of the anti-BCMA antibodies, BCA7-2C5 and BCA7-2E1, with his-tagged human, cynomolgus or mouse BCMA protein were analyzed by SPR in the manner as described above. […]

[2] = target: T2, his-tagged mouse BCMA protein (ACROBiosystems, catalog # BCA-M52H3) (mouse, UniProt O88472 1-49); assay: SPR (Biacore T200), antibody captured on anti-human Fc chip, his-tagged mouse BCMA as analyte
T2 construct: Bought protein; not shown: his tag
T2 chain (looked up): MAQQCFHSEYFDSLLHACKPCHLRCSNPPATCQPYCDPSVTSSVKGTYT
Method: as §1, §2

[3] = target: T3, his-tagged human BCMA protein (ACROBiosystems, catalog # BCA-H522y-100 ug) (human, UniProt Q02223 1-54); assay: SPR (Biacore T200), antibody captured on anti-human Fc chip, his-tagged human BCMA as analyte
T3 construct: limits of the bought construct are not otherwise stated; also called recombinant his-tagged human BCMA; not shown: his tag of the bought protein
T3 sequence: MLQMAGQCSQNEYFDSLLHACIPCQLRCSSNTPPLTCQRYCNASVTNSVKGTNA
Method: as §1, §2

[4] = target: T4, human BAFFR/TNFRSF13C (CD268) Fc tag, from Sino Biological (human, UniProt Q96RJ3 1-71, limits assumed); assay: bio-layer interferometry, antibody coupled to AR2G sensor, BAFFR in solution
T4 construct: Bought protein; not shown: Fc tag
T4 sequence (looked up): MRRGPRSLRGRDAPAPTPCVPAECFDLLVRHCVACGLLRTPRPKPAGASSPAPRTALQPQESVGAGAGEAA
Method: Bio-layer interferometry was used to measure cross-binding between (1) two different anti-BCMA antibodies (BCA7-2C5 or BB C11D5) or a control isotype, and (2) various human antigens including TACI and BAFFR.
Immobilization of antibody was achieved through standard EDC-catalyzed amide bond formation to create a covalent bond between a reactive amine on the protein and the carboxy-terminated biosensor surface. Briefly, AR2G sensors (OctetRED96e from ForteBio) were activated by EDC-NHS for 6 minutes, then 5 ug/ml antibodies were loaded (BCA7-2C5 antibody, Bluebird C11D5 chimeric antibody, or a human IgG isotype antibody) in 10 mM acetate buffer pH 5.0 for 6 minutes, followed by quenching for 6 minutes with 1M ethanolamine pH 8.5. The 3 minutes baseline step removed any unbound antibody from the biosensor, followed by 1.5 minutes each for association of three analyte proteins TACI (human TACI/TNFRSF13B (CD267) His-tag, from Sino Biological, 1 ug/mL in PBS), BAFFR (human BAFFR/TNFRSF13C (CD268) Fc tag) from Sino Biological, 2 ug/mL in PBS), and human BCMA protein (in-house made with mouse Fc, 2 ug/mL in PBS).

T1 sequence (A0A2K5UD97 entry or part of it): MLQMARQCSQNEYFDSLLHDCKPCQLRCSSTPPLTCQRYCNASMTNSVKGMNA

B1: BCA7-2C5 antibody (antibody, V domains shown)
VH: EVQLVESGGGLVKPGGSLRLSCAASGFTSSTAWMSWVRQAPGKGLEWVGRIKSKSDGGTTDYAAPVKGRFTISRDDSKNTLFLQMNSLKTEDTAVYYCAKGGGTYGYWGQGTTVTVSS
VL: QSALTQPASVSGSPGQSVTISCTGTSSAHGGHYYVSWYQQHPGKAPKLMIYDVSNRPSGVSNRFSGSKSGNTASLTISGLQAEDEADYYCGSYTSSGSYVFGTGTKLTVL
Kd [1]: 57 nM | Kd [2]: 880 nM | Kd [3]: 19.4 nM | binding result [4]: no binding (tested: 2 ug/mL)
